PMC13065467, “Assembly and phosphoregulatory mechanisms of the budding yeast outer kinetochore KMN complex” (The Journal of Cell Biology, 2026)
Ends that are not written are not given here.

How the values were obtained:
[1] = molecular target: KlMis12c^Mtw1c with phosphomimetic mutations of Dsn1^AI; conditions: fluorescence polarization; K. lactis complex with phosphomimetic mutations (Asp mutants of S213/S223); ref Dimitrova et al., 2016; cited from earlier work
From the text: We further investigated the effect of Dsn1^AI on the interaction between K^HB-RWDM (which has wild-type unphosphorylated Dsn1^AI) and a peptide modeled on the N-terminal 38 residues of CENP-C^Mif2 (CENP-C^Mif2_1–38). […] Also similar to Dimitrova et al. (2016), using ITC we found no binding of CENP-UAme1_1-33 to the unphosphorylated KM. […] We cannot accoun ... || (+ 2 further places)

[2] = system: KlMis12c^Mtw1c containing an intact Dsn1^AI; conditions: lower concentrations (50 nM) for CENP-U^Ame1, unphosphorylated complex, ref Dimitrova et al., 2016; cited from earlier work
[3] = molecular target: Knl1c:Mis12c^Mtw1c complex K^HB-RWDM^2E (full-length Dsn1 with S240E and S250E phosphomimetic mutations), P53148;Q04431;P40568;P39731;P47149;Q12143; test: ITC; conditions: Syringe: CENP-U^Ame1_1-33-Mut (0.32 mM); Cell: K^HB-RWDM^2E (0.016 mM); parent: 1.35 ± 0.08
[4] = system: T1, K^HB-RWDM^Dsn1Δ257 (Knl1c:Mis12c^Mtw1c complex, Knl1^Spc105 residues 1–444 and Dsn1 residues 1–257 deleted); test: ITC, Dsn1 peptide titrated into K^HB-RWDM^Dsn1Δ257; type: binding, S. cerevisiae
T1 construct: made in house; host or cells: High-5 insect cells (baculovirus)
T1 sequence (Q04431 whole entry, stated change not applied, one chain of several, further chain, the tested form may be a part): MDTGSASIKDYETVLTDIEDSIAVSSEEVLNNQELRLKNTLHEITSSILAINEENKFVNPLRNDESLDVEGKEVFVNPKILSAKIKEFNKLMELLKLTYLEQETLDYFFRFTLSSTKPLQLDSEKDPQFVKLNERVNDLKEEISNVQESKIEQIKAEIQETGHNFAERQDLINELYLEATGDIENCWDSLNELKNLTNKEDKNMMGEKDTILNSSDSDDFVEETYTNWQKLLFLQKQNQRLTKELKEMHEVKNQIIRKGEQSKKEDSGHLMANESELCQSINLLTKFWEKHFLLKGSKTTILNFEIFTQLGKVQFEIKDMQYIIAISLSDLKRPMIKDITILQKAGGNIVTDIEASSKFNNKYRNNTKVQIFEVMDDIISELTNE
T1 sequence (P53148 445-917, stated change not applied, one chain of several, further chain): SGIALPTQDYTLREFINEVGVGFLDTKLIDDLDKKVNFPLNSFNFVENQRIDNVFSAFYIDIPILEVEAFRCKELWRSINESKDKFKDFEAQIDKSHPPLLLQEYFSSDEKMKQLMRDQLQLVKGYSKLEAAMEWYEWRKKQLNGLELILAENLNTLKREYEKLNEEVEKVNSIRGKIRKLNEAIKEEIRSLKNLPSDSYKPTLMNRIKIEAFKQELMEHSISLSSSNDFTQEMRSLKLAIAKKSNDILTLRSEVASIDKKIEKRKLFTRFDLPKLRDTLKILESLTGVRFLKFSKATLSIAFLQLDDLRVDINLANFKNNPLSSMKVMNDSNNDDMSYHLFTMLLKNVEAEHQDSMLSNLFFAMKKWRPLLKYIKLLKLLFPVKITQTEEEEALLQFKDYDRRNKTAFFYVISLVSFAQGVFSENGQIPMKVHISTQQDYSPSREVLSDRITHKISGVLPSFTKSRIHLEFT
Procedure: Dsn1^228–254 and Dsn1^228–254,S240E,S250E peptides were synthesized by Alta BioScience with N-terminal acetylation and C-terminal GSAW extension and amidation. The final sequence of Dsn1^228–254 was […], and Dsn1^228–254,S240E,S250E was […]. All protein complexes and peptides used in a given experiment were dialyzed for a minimum of 16 h and/or buffer-exchanged by size-exclusion chromatography into the same batch of ITC buffer (25 mM HEPES, pH 7.5, 100 mM NaCl, 1 mM TCEP). All experiments were performed using an Auto-iTC200 instrument (Malvern Instruments) at 25°C. In each experiment, 360 μl of protein complex was pipetted into the calorimeter cell. The protein complex loaded into the calorimeter cell contained Knl1c:Mis12c^Mtw1c with Knl1^Spc105_HB-RWD and Dsn1^Δ1–257 and either wild-type Mis12^Mtw1 (K^HB-RWDM ^Dsn1Δ257) or Mis12^Mtw1_E69A,E73A,E77A mutant (K^HB-RWDM ^Dsn1Δ257_Mis12-3A). Wild-type constructs of all other Knl1c and Mis12c^Mtw1c subunits were included. Titration of either the Dsn1^228–254 or Dsn1^228-254,S240E,S250E peptide into the cell was then performed by an initial injection of 0.5 μl, followed by 19 further injections of 2.0 μl each. […] Titrations were performed in duplicate or triplicate, and reported KD and n values were calculated as an average from all replicate results.

[5] = molecular target: T2, Knl1c:Mis12c^Mtw1c complex K^HB-RWDM^2E (full-length Dsn1 with S240E and S250E phosphomimetic mutations) (S. cerevisiae, UniProt P53148 445-917; Q04431 1-385; P40568 1-576; P39731 1-289; P47149 1-201; Q12143 …, S240E | S250E); test: ITC; peptide titrated into the complex in the cell; 20°C; 25 mM HEPES pH 7.5, 100 mM NaCl, 0.5 mM TCEP; conditions: both partners purified
T2 construct: Knl1^Spc105_HB-RWD: Knl1^Spc105, S. cerevisiae S288c, residues 445-917; ZWINT^Kre28, S. cerevisiae S288c; no truncation stated; Dsn1^S240E,S250E: full-length Dsn1, S. cerevisiae S288c, with phosphomimetic mutations; Mis12^Mtw1, S. cerevisiae S288c; Nnf1, S. cerevisiae S288c; Nsl1, S. cerevisiae S288c; also called KM^2E; K^HB-RWDM^S240E,S250E; source: High-5 insect cells (baculovirus), purified …
T2 sequence (P53148 445-917, chain 1 of 2): as the sequence (P53148 445-917, stated change not applied, one chain of several, further chain) above
T2 sequence (Q04431 whole entry, chain 2 of 2, the tested form may be a part): as the sequence (Q04431 whole entry, stated change not applied, one chain of several, further chain, the tested form may be a part) above

[6] = molecular target: T3, S. cerevisiae Ndc80 complex (Ndc80, Nuf2, Spc24, Spc25) (S. cerevisiae, UniProt P40460 1-691; P33895 1-451; Q04477 1-213; P40014 1-221); test: SEC; 4 μM Mis12c^Mtw1c (wild type or mutant) mixed with 4 μM Ndc80c in KMN buffer, 30 min on ice; Superose 6 3.2/300; fractions on SDS-PAGE; conditions: both partners purified
T3 construct: Ndc80, S. cerevisiae S288c; Nuf2, S. cerevisiae S288c; Spc24, S. cerevisiae S288c; Spc25, S. cerevisiae S288c; The Twin-Strep tag on Nuf2 is TEV cleavable; no cleavage is described; source: High-5 insect cells (two baculoviruses), purified (Strep-Tactin, Resource Q, SEC); copies: + + +
T3 sequence (P40460 whole entry, chain 1 of 4): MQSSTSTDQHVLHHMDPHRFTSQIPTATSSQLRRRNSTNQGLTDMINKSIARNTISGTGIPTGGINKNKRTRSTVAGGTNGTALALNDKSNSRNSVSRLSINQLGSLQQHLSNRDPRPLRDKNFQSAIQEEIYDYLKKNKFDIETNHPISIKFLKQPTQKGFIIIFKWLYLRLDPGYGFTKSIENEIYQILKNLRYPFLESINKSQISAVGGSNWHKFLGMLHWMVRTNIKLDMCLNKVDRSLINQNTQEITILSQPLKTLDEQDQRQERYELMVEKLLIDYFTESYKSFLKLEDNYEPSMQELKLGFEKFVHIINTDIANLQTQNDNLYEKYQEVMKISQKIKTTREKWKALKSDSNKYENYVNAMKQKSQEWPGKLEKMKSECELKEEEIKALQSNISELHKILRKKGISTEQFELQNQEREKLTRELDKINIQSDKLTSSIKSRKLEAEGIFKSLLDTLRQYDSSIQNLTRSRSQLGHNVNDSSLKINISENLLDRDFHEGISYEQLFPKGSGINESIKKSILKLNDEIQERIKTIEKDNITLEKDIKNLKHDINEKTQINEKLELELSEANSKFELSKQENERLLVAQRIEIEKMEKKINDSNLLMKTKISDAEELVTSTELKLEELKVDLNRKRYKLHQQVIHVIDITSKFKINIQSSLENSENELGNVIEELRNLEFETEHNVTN
T3 sequence (P33895 whole entry, chain 2 of 4): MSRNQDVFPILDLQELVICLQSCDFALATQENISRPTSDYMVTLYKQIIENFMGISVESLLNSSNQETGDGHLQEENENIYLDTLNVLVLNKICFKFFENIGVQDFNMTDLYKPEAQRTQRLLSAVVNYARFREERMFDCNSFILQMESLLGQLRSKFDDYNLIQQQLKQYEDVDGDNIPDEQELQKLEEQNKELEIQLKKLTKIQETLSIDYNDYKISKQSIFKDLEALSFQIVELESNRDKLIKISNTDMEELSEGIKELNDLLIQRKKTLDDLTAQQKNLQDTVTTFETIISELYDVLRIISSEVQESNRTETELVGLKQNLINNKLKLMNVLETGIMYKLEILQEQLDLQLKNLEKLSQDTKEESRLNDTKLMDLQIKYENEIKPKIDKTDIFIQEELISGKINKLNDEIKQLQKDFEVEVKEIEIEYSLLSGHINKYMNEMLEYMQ
T3 sequence (Q04477 whole entry, chain 3 of 4): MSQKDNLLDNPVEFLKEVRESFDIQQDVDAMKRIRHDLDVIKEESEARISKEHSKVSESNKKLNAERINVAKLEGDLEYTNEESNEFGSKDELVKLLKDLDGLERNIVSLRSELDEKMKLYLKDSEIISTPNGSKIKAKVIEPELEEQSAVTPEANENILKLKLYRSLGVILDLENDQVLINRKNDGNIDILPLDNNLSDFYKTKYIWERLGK
T3 sequence (P40014 whole entry, chain 4 of 4): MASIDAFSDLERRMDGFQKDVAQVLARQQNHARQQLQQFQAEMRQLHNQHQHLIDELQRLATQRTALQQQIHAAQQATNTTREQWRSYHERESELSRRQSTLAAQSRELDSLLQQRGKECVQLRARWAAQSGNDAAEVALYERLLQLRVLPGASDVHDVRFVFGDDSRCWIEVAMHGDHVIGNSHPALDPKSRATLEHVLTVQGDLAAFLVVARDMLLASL

K. lactis CENP-U^Ame1_1-25: residues 1–25 of K. lactis CENP-U^Ame1, reported by Dimitrova et al., 2016 (MDALKQRHLKLLYRQRGSASRTIDY; UniProt Q6CUE5 1-25, looked up, fragment)
Kd [1]: 1480 nM | binding (fluorescence polarization) [2]: did not interact

CENP-U^Ame1_1–33 peptide (residues 1–33 of CENP-U^Ame1) D25A; V27A; I28A; F29A; T31A
other: N (ITC stoichiometry) [3]: 1.34

Ac-PHYIQRTRERKKEIGSQRGRRLEMLASGSAW-NH2 [Dsn1^228-254,S240E,S250E]
decrease of affinity versus wild-type peptide ([4]; ratio of ITC KD values, S240E,S250E peptide versus wild-type Dsn1^228–254): fivefold | Kd ([4]; read-out: KD (ITC) of phosphomimetic Dsn1 peptide, ITC, 25°C, 25 mM HEPES pH 7.5, 100 mM NaCl, 1 mM TCEP, syringe 0.35 mM, cell 0.025 mM, average from two experiments (technical repeats)): 6000 nM

CENP-C^Mif2_1-41: CENP-C^Mif2 peptide (residues 1-41) reported by Dimitrova et al., 2016 (MDYMKLGLKSRKTGIDVKQDIPKDEYSMENIDDFFKDDETS; UniProt P35201 1-41, looked up, fragment)
Kd [1]: 1750 nM | binding (fluorescence polarization) [2]: no binding

B1: CENP-C^Mif2_1–38 peptide (N-terminal 38 residues of CENP-C^Mif2) (peptide)
peptide: MDYMKLGLKSRKTGIDVKQDIPKDEYSMENIDDFFKDD-NH2
notes: CENP-C^Mif2, S. cerevisiae, residues 1-38; source: synthetic peptide (Alta BioScience)
Kd [5]: 980 nM

B2: CENP-U^Ame1_1–33 peptide (residues 1–33 of CENP-U^Ame1) (peptide)
peptide: MDRDTKLAFRLRGSHSRRTDDIDDDVIVFKTPNW-NH2
notes: CENP-U^Ame1, S. cerevisiae, residues 1-33; added C-terminal tryptophan after residue 33 (so in the source); source: synthetic peptide (Alta BioScience)
Kd [5]: 240 nM

B3: CENP-U^Ame1_1-33-Mut peptide (CENP-U^Ame1_1-33 with Ala substitutions) (peptide)
peptide: MDRDTKLAFRLRGSHSRRTDDIDDAAAVAKAPNW-NH2
notes: CENP-U^Ame1, S. cerevisiae, residues 1-33 with five Ala substitutions; added C-terminal tryptophan after residue 33 (so in the source); also called CENP-U^Ame1_1-33 mutant; source: synthetic peptide (Alta BioScience)
Kd [5]: 1310 nM

B4: Isolated Mis12c^Mtw1c, full-length and wild-type proteins (Dsn1, Nsl1, Mis12^Mtw1, Nnf1) (complex, S. cerevisiae)
chain 1: MSLEPTQTVSGTPPMLHQRTHKQVYPLRMETIPILESDSKATLQSNEPTQKDEEETEYFENKQSVSNLSPDLKFKRHKNKHIQGFPTLGERLDNLQDIKKAKRVENFNSSAPIADDNHSGDATANATANATANATANVNASAMPAPYMPYYYYYHPMNAPTPAMIPYPGSPMHSIMPNSSLQPFYSQPTAAGGPDMTTPQNISSSQQLLPAPQLFPYGSFHQQQLQQPHYIQRTRERKKSIGSQRGRRLSMLASQANGGSTIISPHKDIPEEDFYTVVGNASFGKNLQIRQLFNWCLMRSLHKLELKAKNQEEEGELEHLTKKSKLESTKAETDYVDPKRLAMVIIKEFVDDLKKDHIAIDWEDEEKYEDEDEEKILDNTENYDDTELRQLFQENDDDDDDDDEVDYSEIQRSRRKFSERRKALPKEPKKLLPNSKNVENTKNLSILTSKVNAIKNEVKEWAVTLDTSRPDLEWQELTSFSSQPLEPLSDTEEPDLAIADVETKLETKVDELRYQSHILNSHSLALNEITNSKVNKLNIETMRKISSETDDDHSQVINPQQLLKGLSLSFSKKLDL
chain 2: MSQGQSKKLDVTVEQLRSIYHQFHDILEEKTDLHLPKKEYDDDAVRREVQIQLQEFLLSAMTMASKSLEVVNADTVGKTVKQLIMESQEKYMEPFDLDLNEQVRKMYQEWEDETVKVAQLRQTGPAKINEVYNNSKDEYLAQLDGRIGVLQARMMQQQSADHDDSTDDADDHINWEHIKQDYVASLNELYQTQQDLPKVRYNVEKVKRLMDFLEED
chain 3: MSAPTMRSTSILTEHLGYPPISLVDDIINAVNEIMYKCTAAMEKYLLSKSKIGEEDYGEEIKSGVAKLESLLENSVDKNFDKLELYVLRNVLRIPEEYLDANVFRLENQKDLVIVDENELKKSEEKLREKVNDVELAFKKNEMLLKRVTKVKRLLFTIRGFKQKLNELLKCKDDVQLQKILESLKPIDDTMTLLTDSLRKLYVDSESTSSTEEVEALLQRLKTNGKQNNKDFRTRYIDIRTNNVLRKLGLLGDKEDEKQSAKPDARTQAGDIVSIDIEEPQLDLLDDVL
chain 4: MVNSHGIRYIRLKQVFNRALDQSISKLQSWDKVSSCFPQYVNSKQGAINVANCQRQLTEFWTELCQREFKEIMEERNVEQKLNELDELILEAKERYTDRDQDEVNKGPAIDELSSKELVECHLYSQRMHAIHEIDERLAKVNEMNDQLAQELKDLETQVEVEKNEIGKMYDEYLGSHTDQPANVLLVQSLNDMVLELKENY
notes: Dsn1, S. cerevisiae S288c; Nsl1, S. cerevisiae S288c; Mis12^Mtw1, S. cerevisiae S288c; Nnf1, S. cerevisiae S288c; source: High-5 insect cells (two baculoviruses), purified (Strep-Tactin, SEC); copies: + + +
binding result [6]: binds

B5: Mis12c^Mtw1c_Mis12ΔC (isolated Mis12c^Mtw1c with Mis12^Mtw1 residues 272–289 deleted) (complex, S. cerevisiae)
chain 1: B4 chain 1
chain 2: B4 chain 2
chain 3: MSAPTMRSTSILTEHLGYPPISLVDDIINAVNEIMYKCTAAMEKYLLSKSKIGEEDYGEEIKSGVAKLESLLENSVDKNFDKLELYVLRNVLRIPEEYLDANVFRLENQKDLVIVDENELKKSEEKLREKVNDVELAFKKNEMLLKRVTKVKRLLFTIRGFKQKLNELLKCKDDVQLQKILESLKPIDDTMTLLTDSLRKLYVDSESTSSTEEVEALLQRLKTNGKQNNKDFRTRYIDIRTNNVLRKLGLLGDKEDEKQSAKPDARTQAGD
chain 4: B4 chain 4
notes: Dsn1, S. cerevisiae S288c; Nsl1, S. cerevisiae S288c; Nnf1, S. cerevisiae S288c; also called Mis12^Mtw1_Δ272-C; source: High-5 insect cells (two baculoviruses), purified (Strep-Tactin, SEC); copies: + + +
binding result [6]: binds

B6: Mis12c^Mtw1c_Mis12ΔC-Nnf1ΔC (isolated Mis12c^Mtw1c with Mis12^Mtw1 residues 272–289 and Nnf1 residues 180–201 deleted) (complex, S. cerevisiae)
chain 1: B4 chain 1
chain 2: B4 chain 2
chain 3: B5 chain 3
chain 4: MVNSHGIRYIRLKQVFNRALDQSISKLQSWDKVSSCFPQYVNSKQGAINVANCQRQLTEFWTELCQREFKEIMEERNVEQKLNELDELILEAKERYTDRDQDEVNKGPAIDELSSKELVECHLYSQRMHAIHEIDERLAKVNEMNDQLAQELKDLETQVEVEKNEIGKMYDEYLGSHTD
notes: Dsn1, S. cerevisiae S288c; Nsl1, S. cerevisiae S288c; Nnf1^Δ180-C: Nnf1, S. cerevisiae S288c, residues 180-201 deleted; source: High-5 insect cells (two baculoviruses), purified (Strep-Tactin, SEC); copies: + + +
binding result [6]: binds

B7: Mis12c^Mtw1c_Nnf1ΔC (isolated Mis12c^Mtw1c with Nnf1 residues 180–201 deleted) (complex, S. cerevisiae)
chain 1: B4 chain 1
chain 2: B4 chain 2
chain 3: B4 chain 3
chain 4: B6 chain 4
notes: Dsn1, S. cerevisiae S288c; Nsl1, S. cerevisiae S288c; Mis12^Mtw1, S. cerevisiae S288c; Nnf1^Δ180-C: Nnf1, S. cerevisiae S288c, residues 180-201 deleted; also called Nnf1^Δ180-C; source: High-5 insect cells (two baculoviruses), purified (Strep-Tactin, SEC); copies: + + +
binding result [6]: binds
